The results in this text go back to paper PMC3675483 (Nucleic Acids Research, 2013).

What is called stoichiometry N is the number of molecules, sites or subunits per partner or assembly. One may read the Kd as the constant that tells how readily two partners part at equilibrium.

The target of series [1] is Schmallenberg virus (SBV) nucleocapsid (N) protein (Schmallenberg virus). The series is described as follows: crystal structure.
The target is the same in series [2]. The series is described as follows: SEC. For orientation: Size exclusion chromatography separates by hydrodynamic size, large species first.
Series [3] shares this target. The series is described as follows: negative-stain electron microscopy with single-particle averaging.
The target in series [4] is Selenomethionine-substituted SBV N protein (Schmallenberg virus). The series is described as follows: crystal structure.
The series “SEC” concerns the molecule itself. The series is described as follows: SEC.
In series [5] the target is BUNV N (nucleocapsid) wild type (Bunyamwera virus, UniProt P16495 1-233). The series is described as follows: fluorescence polarization. In general terms: Polarisation of emitted light reports the rotation of a fluorescent probe.
The target in series [6] is T1, SBV N (nucleocapsid) wild type (Schmallenberg virus isolate BH80/11-1, UniProt H2AM13 1-233).
T1 sequence: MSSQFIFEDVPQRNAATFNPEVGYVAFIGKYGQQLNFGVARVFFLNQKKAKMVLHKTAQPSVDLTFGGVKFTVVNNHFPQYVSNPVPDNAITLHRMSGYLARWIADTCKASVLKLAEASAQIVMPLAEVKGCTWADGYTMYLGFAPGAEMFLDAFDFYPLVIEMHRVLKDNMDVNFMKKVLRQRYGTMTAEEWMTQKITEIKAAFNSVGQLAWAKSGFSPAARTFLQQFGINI
The series is described as follows: fluorescence polarization.

In the case of “Schmallenberg virus (SBV) nucleocapsid (N) protein (natural protein)”, the stoichiometry N in series [1], in series [2] and in series [3] was 4 each time.

As for “Selenomethionine-substituted SBV N protein (natural protein)”, the stoichiometry N in series [4] amounted to 4.

B1: Bunyamwera virus (BUNV) nucleocapsid (N) protein (natural protein)
chain: MIELEFHDVAANTSSTFDPEVAYANFKRVHTTGLSYDHIRIFYIKGREIKTSLAKRSEWEVTLNLGGWKITVYNTNFPGNRNNPVPDDGLTLHRLSGFLARYLLEKMLKVSEPEKLIIKSKIINPLAEKNGITWNDGEEVYLSFFPGSEMFLGTFRFYPLAIGIYKVQRKEMEPKYLEKTMRQRYMGLEAATWTVSKLTEVQSALTVVSSLGWKKTNVSAAARDFLAKFGINM
In the case of B1, in “SEC”, the “stoichiometry N” value was determined as 4.

For the molecule AGUAGUGUACUCCACACUACAAACUUGCUAUUGUUGAAAAUCGCUGUG (ssRNA) [BUNV48AG], the dissociation constant Kd was determined as 62.9 ± 5 nM in series [5] and 21.3 ± 1 nM in series [6].
